Results from IntAct's records for PubMed 31515488.

B1: Golgin-45 (Homo sapiens), Q9H2G9 (parent)
chain: MTTKNLETKVTVTSSPIRGAGDGMETEEPPKSVEVTSGVQSRKHHSLQSPWKKAVPSESPGVLQLGKMLTEKAMEVKAVRILVPKAAITHDIPNKNTKVKSLGHHKGEFLGQSEGVIEPNKELSEVKNVLEKLKNSERRLLQDKEGLSNQLRVQTEVNRELKKLLVASVGDDLQYHFERLAREKNQLILENEALGRNTAQLSEQLERMSIQCDVWRSKFLASRVMADELTNSRAALQRQNRDAHGAIQDLLSEREQFRQEMIATQKLLEELLVSLQWGREQTYSPSVQPHSTAELALTNHKLAKAVNSHLLGNVGINNQKKIPSTVEFCSTPAEKMAETVLRILDPVTCKESSPDNPFFESSPTTLLATKKNIGRFHPYTRYENITFNCCNHCRGELIAL
B2: Baculoviral IAP repeat-containing protein 7 (Homo sapiens), Q96CA5-1 (parent)
chain: MGPKDSAKCLHRGPQPSHWAAGDGPTQERCGPRSLGSPVLGLDTCRAWDHVDGQILGQLRPLTEEEEEEGAGATLSRGPAFPGMGSEELRLASFYDWPLTAEVPPELLAAAGFFHTGHQDKVRCFFCYGGLQSWKRGDDPWTEHAKWFPSCQFLLRSKGRDFVHSVQETHSQLLGSWDPWEEPEDAAPVAPSVPASGYPELPTPRREVQSESAQEPGGVSPAEAQRAWWVLEPPGARDVEAQLRRLQEERTCKVCLDRAVSIVFVPCGHLVCAECAPGLQLCPICRAPVRSRVRTFLS
B3: Pachytene checkpoint protein 2 homolog (Homo sapiens), Q15645 (parent)
chain: MDEAVGDLKQALPCVAESPTVHVEVHQRGSSTAKKEDINLSVRKLLNRHNIVFGDYTWTEFDEPFLTRNVQSVSIIDTELKVKDSQPIDLSACTVALHIFQLNEDGPSSENLEEETENIIAANHWVLPAAEFHGLWDSLVYDVEVKSHLLDYVMTTLLFSDKNVNSNLITWNRVVLLHGPPGTGKTSLCKALAQKLTIRLSSRYRYGQLIEINSHSLFSKWFSESGKLVTKMFQKIQDLIDDKDALVFVLIDEVESLTAARNACRAGTEPSDAIRVVNAVLTQIDQIKRHSNVVILTTSNITEKIDVAFVDRADIKQYIGPPSAAAIFKIYLSCLEELMKCQIIYPRQQLLTLRELEMIGFIENNVSKLSLLLNDISRKSEGLSGRVLRKLPFLAHALYVQAPTVTIEGFLQALSLAVDKQFEERKKLAAYI
partner: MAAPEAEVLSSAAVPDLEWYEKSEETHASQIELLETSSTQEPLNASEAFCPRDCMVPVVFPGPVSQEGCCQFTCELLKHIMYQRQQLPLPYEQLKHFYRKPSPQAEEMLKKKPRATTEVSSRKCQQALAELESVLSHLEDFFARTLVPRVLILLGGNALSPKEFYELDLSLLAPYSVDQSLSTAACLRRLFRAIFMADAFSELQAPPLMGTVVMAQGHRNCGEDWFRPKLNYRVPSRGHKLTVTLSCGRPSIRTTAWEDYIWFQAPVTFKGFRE

Variants of: B1
Conditions: with aakb2_human PRKAB2, O43741
Sequence of aakb2_human PRKAB2, O43741 (O43741 whole entry): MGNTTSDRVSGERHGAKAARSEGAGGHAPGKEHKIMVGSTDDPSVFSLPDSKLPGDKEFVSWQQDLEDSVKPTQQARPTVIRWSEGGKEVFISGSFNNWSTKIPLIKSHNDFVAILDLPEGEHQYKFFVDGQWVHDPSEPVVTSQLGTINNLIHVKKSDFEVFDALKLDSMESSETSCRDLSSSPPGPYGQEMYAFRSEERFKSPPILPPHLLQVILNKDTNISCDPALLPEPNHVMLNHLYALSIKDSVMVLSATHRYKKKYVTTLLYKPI

Row | Variant | effect of a mutation on the interaction
1 | MTTKNLETKVTVTSSPIRGAGDGMETEEPPKSVEVTSGVRSRKHHSLQSPWKKAVPSESPGVLQLGKMLTEKAMEVKAVRILVPKAAITHDIPNKNTKVKSLGHHKGEFLGQSEGVIEPNKELSEVKNVLEKLKNSERRLLQDKEGLSNQLRVQTEVNRELKKLLVASVGDDLQYHFERLAREKNQLILENEALGRNTAQLSEQLERMSIQCDVWRSKFLASRVMADELTNSRAALQRQNRDAHGAIQDLLSEREQFRQEMIATQKLLEELLVSLQWGREQTYSPSVQPHSTAELALTNHKLAKAVNSHLLGNVGINNQKKIPSTVEFCSTPAEKMAETVLRILDPVTCKESSPDNPFFESSPTTLLATKKNIGRFHPYTRYENITFNCCNHCRGELIAL [Q40R] | with no effect

Variants of: B1
Conditions: with rab2a_human RAB2A

Row | Variant | effect of a mutation on the interaction
2 | MTTKNLETKVTVTSSPIRGAGDGMETEEPPKSVEVTSGVRSRKHHSLQSPWKKAVPSESPGVLQLGKMLTEKAMEVKAVRILVPKAAITHDIPNKNTKVKSLGHHKGEFLGQSEGVIEPNKELSEVKNVLEKLKNSERRLLQDKEGLSNQLRVQTEVNRELKKLLVASVGDDLQYHFERLAREKNQLILENEALGRNTAQLSEQLERMSIQCDVWRSKFLASRVMADELTNSRAALQRQNRDAHGAIQDLLSEREQFRQEMIATQKLLEELLVSLQWGREQTYSPSVQPHSTAELALTNHKLAKAVNSHLLGNVGINNQKKIPSTVEFCSTPAEKMAETVLRILDPVTCKESSPDNPFFESSPTTLLATKKNIGRFHPYTRYENITFNCCNHCRGELIAL [Q40R] | with no effect

Variants of: B1
Conditions: with zbt24_human ZBTB24, O43167
Sequence of zbt24_human ZBTB24, O43167 (O43167 whole entry): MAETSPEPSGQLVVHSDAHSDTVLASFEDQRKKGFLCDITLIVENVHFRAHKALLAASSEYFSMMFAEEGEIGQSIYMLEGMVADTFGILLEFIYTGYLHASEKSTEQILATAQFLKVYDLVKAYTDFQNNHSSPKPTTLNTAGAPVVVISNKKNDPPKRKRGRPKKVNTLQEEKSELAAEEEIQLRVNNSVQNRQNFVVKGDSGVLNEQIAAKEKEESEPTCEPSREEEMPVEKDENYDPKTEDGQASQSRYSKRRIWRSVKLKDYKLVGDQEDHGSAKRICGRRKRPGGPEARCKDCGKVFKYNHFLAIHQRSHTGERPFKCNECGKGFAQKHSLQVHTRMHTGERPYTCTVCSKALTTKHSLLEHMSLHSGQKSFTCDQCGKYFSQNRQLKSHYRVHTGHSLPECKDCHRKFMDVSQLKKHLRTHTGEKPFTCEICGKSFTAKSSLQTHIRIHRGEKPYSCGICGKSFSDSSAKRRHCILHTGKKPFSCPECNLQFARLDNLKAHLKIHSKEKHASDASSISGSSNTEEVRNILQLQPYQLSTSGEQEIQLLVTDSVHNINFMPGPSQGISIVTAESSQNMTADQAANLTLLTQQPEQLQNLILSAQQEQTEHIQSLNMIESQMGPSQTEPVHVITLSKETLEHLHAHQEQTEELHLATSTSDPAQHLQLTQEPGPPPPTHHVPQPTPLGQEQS

Row | Variant | effect of a mutation on the interaction
3 | MTTKNLETKVTVTSSPIRGAGDGMETEEPPKSVEVTSGVRSRKHHSLQSPWKKAVPSESPGVLQLGKMLTEKAMEVKAVRILVPKAAITHDIPNKNTKVKSLGHHKGEFLGQSEGVIEPNKELSEVKNVLEKLKNSERRLLQDKEGLSNQLRVQTEVNRELKKLLVASVGDDLQYHFERLAREKNQLILENEALGRNTAQLSEQLERMSIQCDVWRSKFLASRVMADELTNSRAALQRQNRDAHGAIQDLLSEREQFRQEMIATQKLLEELLVSLQWGREQTYSPSVQPHSTAELALTNHKLAKAVNSHLLGNVGINNQKKIPSTVEFCSTPAEKMAETVLRILDPVTCKESSPDNPFFESSPTTLLATKKNIGRFHPYTRYENITFNCCNHCRGELIAL [Q40R] | with no effect

Variants of: B2
Conditions: with phf1_human PHF1, O43189
Sequence of phf1_human PHF1, O43189 (O43189 whole entry): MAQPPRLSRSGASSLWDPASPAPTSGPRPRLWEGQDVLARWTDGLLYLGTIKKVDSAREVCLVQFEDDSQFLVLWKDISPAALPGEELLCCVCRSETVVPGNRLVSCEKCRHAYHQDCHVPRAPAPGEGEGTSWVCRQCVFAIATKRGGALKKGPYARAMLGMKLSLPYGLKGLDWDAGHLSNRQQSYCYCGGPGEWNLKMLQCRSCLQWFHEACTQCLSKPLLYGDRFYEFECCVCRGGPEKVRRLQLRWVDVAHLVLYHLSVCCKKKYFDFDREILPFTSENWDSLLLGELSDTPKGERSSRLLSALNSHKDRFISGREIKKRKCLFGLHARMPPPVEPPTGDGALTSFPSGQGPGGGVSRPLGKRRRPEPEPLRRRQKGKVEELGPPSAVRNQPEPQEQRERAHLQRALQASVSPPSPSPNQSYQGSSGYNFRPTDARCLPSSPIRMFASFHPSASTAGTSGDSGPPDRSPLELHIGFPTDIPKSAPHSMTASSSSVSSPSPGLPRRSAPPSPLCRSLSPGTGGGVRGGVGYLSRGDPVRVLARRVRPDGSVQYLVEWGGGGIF

Row | Variant | effect of a mutation on the interaction
4 | MGPKDSAKCLHRGPQPSHWAAGDGPTQERCGPRSLGSPVLGLDTCRAWDHVDGQILGQLRPLTEEEEEEGAGATLSRGPAFPGMGSEELRLASFYDWPLTAEVPPELLAAAGFFHTGHQDKVRCFFCYGGLQSWKRGDDPWTEHAKWFPSCQFLLRSKGRDFVRSVQETHSQLLGSWDPWEEPEDAAPVAPSVPASGYPELPTPRREVQSESAQEPGGVSPAEAQRAWWVLEPPGARDVEAQLRRLQEERTCKVCLDRAVSIVFVPCGHLVCAECAPGLQLCPICRAPVRSRVRTFLS [H164R] | with no effect

Variants of: B2
Conditions: with ddx6_human DDX6, P26196
Sequence of ddx6_human DDX6, P26196 (P26196 whole entry): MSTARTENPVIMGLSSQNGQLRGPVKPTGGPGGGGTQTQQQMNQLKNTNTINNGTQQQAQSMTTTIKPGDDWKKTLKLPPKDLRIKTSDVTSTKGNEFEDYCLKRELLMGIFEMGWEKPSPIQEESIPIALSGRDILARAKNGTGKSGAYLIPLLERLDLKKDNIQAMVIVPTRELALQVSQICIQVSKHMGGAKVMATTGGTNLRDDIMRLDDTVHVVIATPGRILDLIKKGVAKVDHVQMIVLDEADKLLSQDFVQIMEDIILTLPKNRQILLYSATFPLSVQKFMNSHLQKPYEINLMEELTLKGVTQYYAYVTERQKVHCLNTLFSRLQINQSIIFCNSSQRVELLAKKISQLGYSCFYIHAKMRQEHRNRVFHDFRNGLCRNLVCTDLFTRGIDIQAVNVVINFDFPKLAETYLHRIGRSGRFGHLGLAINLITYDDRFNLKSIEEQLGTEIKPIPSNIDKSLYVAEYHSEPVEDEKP

Row | Variant | effect of a mutation on the interaction
5 | MGPKDSAKCLHRGPQPSHWAAGDGPTQERCGPRSLGSPVLGLDTCRAWDHVDGQILGQLRPLTEEEEEEGAGATLSRGPAFPGMGSEELRLASFYDWPLTAEVPPELLAAAGFFHTGHQDKVRCFFCYGGLQSWKRGDDPWTEHAKWFPSCQFLLRSKGRDFVRSVQETHSQLLGSWDPWEEPEDAAPVAPSVPASGYPELPTPRREVQSESAQEPGGVSPAEAQRAWWVLEPPGARDVEAQLRRLQEERTCKVCLDRAVSIVFVPCGHLVCAECAPGLQLCPICRAPVRSRVRTFLS [H164R] | with no effect

Variants of: B2
Conditions: with birc2_human BIRC2, Q13490
Sequence of birc2_human BIRC2, Q13490 (Q13490 whole entry): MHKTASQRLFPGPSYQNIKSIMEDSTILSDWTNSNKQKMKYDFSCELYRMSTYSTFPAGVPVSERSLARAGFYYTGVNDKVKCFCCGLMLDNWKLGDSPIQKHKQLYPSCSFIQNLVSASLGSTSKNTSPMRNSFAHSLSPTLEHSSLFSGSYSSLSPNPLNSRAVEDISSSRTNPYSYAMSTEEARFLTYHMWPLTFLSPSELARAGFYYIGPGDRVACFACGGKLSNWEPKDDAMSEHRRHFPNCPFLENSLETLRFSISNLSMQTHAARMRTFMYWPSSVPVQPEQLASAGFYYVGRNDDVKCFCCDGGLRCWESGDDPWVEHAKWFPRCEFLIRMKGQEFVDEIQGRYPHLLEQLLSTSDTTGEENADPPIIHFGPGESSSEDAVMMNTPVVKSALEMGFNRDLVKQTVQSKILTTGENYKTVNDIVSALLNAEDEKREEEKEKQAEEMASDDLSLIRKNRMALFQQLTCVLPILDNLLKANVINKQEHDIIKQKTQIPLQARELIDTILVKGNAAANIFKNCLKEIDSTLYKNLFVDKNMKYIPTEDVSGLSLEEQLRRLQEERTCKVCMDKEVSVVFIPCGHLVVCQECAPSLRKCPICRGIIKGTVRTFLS

Row | Variant | effect of a mutation on the interaction
6 | MGPKDSAKCLHRGPQPSHWAAGDGPTQERCGPRSLGSPVLGLDTCRAWDHVDGQILGQLRPLTEEEEEEGAGATLSRGPAFPGMGSEELRLASFYDWPLTAEVPPELLAAAGFFHTGHQDKVRCFFCYGGLQSWKRGDDPWTEHAKWFPSCQFLLRSKGRDFVRSVQETHSQLLGSWDPWEEPEDAAPVAPSVPASGYPELPTPRREVQSESAQEPGGVSPAEAQRAWWVLEPPGARDVEAQLRRLQEERTCKVCLDRAVSIVFVPCGHLVCAECAPGLQLCPICRAPVRSRVRTFLS [H164R] | with no effect

Variants of: B2
Conditions: with ddx6_human DDX6, P26196
Remark: another data set of the same source

Row | Variant | effect of a mutation on the interaction
7 | MGPKDSAKCLHRGPQPSHWAAGDGPTQERCGPRSLGSPVLGLDTCRAWDHVDGQILGQLRPLTEEEEEEGAGATLSRGPAFPGMGSEELRLASFYDWPLTAEVPPELLAAAGFFHTGHQDKVRCFFCYGGLQSWKRGDDPWTEHAKWFPSCQFLLRSKGRDFVRSVQETHSQLLGSWDPWEEPEDAAPVAPSVPASGYPELPTPRREVQSESAQEPGGVSPAEAQRAWWVLEPPGARDVEAQLRRLQEERTCKVCLDRAVSIVFVPCGHLVCAECAPGLQLCPICRAPVRSRVRTFLS [H164R] | with no effect

Variants of: B2
Conditions: with casp9_human CASP9, P55211
Sequence of casp9_human CASP9, P55211 (P55211 whole entry): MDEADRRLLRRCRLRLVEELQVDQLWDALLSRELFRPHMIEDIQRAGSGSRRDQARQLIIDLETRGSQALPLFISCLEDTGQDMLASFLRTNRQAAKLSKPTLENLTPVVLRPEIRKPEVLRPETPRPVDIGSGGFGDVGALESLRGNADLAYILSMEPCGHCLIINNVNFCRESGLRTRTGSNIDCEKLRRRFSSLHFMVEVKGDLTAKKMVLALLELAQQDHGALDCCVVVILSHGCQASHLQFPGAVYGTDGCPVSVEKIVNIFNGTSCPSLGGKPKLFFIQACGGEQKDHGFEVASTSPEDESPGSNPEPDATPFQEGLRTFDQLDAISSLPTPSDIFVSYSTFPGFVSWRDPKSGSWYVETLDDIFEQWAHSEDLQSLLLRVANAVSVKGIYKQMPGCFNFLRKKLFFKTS

Row | Variant | effect of a mutation on the interaction
8 | MGPKDSAKCLHRGPQPSHWAAGDGPTQERCGPRSLGSPVLGLDTCRAWDHVDGQILGQLRPLTEEEEEEGAGATLSRGPAFPGMGSEELRLASFYDWPLTAEVPPELLAAAGFFHTGHQDKVRCFFCYGGLQSWKRGDDPWTEHAKWFPSCQFLLRSKGRDFVRSVQETHSQLLGSWDPWEEPEDAAPVAPSVPASGYPELPTPRREVQSESAQEPGGVSPAEAQRAWWVLEPPGARDVEAQLRRLQEERTCKVCLDRAVSIVFVPCGHLVCAECAPGLQLCPICRAPVRSRVRTFLS [H164R] | with no effect

Variants of: B2
Conditions: with birc2_human BIRC2, Q13490
Remark: another data set of the same source

Row | Variant | effect of a mutation on the interaction
9 | MGPKDSAKCLHRGPQPSHWAAGDGPTQERCGPRSLGSPVLGLDTCRAWDHVDGQILGQLRPLTEEEEEEGAGATLSRGPAFPGMGSEELRLASFYDWPLTAEVPPELLAAAGFFHTGHQDKVRCFFCYGGLQSWKRGDDPWTEHAKWFPSCQFLLRSKGRDFVRSVQETHSQLLGSWDPWEEPEDAAPVAPSVPASGYPELPTPRREVQSESAQEPGGVSPAEAQRAWWVLEPPGARDVEAQLRRLQEERTCKVCLDRAVSIVFVPCGHLVCAECAPGLQLCPICRAPVRSRVRTFLS [H164R] | with no effect

Variants of: B2
Conditions: with phf1_human PHF1, O43189
Remark: another data set of the same source

Row | Variant | effect of a mutation on the interaction
10 | MGPKDSAKCLHRGPQPSHWAAGDGPTQERCGPRSLGSPVLGLDTCRAWDHVDGQILGQLRPLTEEEEEEGAGATLSRGPAFPGMGSEELRLASFYDWPLTAEVPPELLAAAGFFHTGHQDKVRCFFCYGGLQSWKRGDDPWTEHAKWFPSCQFLLRSKGRDFVRSVQETHSQLLGSWDPWEEPEDAAPVAPSVPASGYPELPTPRREVQSESAQEPGGVSPAEAQRAWWVLEPPGARDVEAQLRRLQEERTCKVCLDRAVSIVFVPCGHLVCAECAPGLQLCPICRAPVRSRVRTFLS [H164R] | with no effect

Variants of: B2
Conditions: with casp9_human CASP9, P55211
Remark: another data set of the same source

Row | Variant | effect of a mutation on the interaction
11 | MGPKDSAKCLHRGPQPSHWAAGDGPTQERCGPRSLGSPVLGLDTCRAWDHVDGQILGQLRPLTEEEEEEGAGATLSRGPAFPGMGSEELRLASFYDWPLTAEVPPELLAAAGFFHTGHQDKVRCFFCYGGLQSWKRGDDPWTEHAKWFPSCQFLLRSKGRDFVRSVQETHSQLLGSWDPWEEPEDAAPVAPSVPASGYPELPTPRREVQSESAQEPGGVSPAEAQRAWWVLEPPGARDVEAQLRRLQEERTCKVCLDRAVSIVFVPCGHLVCAECAPGLQLCPICRAPVRSRVRTFLS [H164R] | with no effect

Variants of: B3
Conditions: with md2bp_human MAD2L1BP

Row | Variant | effect of a mutation on the interaction
12 | MDEAVGDLKQALPCVAESPTVHVEVHQRGSSTAKKEDINLSVRKLLNRHNIVFGDYTWTEFDEPFLTRNVQSVSIIDTELKVKDSQPIDLSACTVALHIFQLNEDGPSSENLEEETENIIAANHWVLPAAEFHGLWDSLVYDVEVKSHLLDYVMTTLLFSDKNVNSNLITWNRVVLLHGPPGTGKTSLCKALAQKLTIRLSSRYRYGQLIEINSHSLFSKWFSESGKLVTKMFQKIQDLIDDKDALVFVLIDEVESLTAARNACRAGTEPSDAIRVVNAVLTQIDQIKRHSNVVILTTSNITEKIDVAFVDRADIKQYIGPPSAAAIFKIYLSCLEELMKCQIIYPRQQLLTLRELEMIGFIENNVSKLSLLLNDISRKSEGLSGRVLRKLPFLAHALYVQAPTVTIEEFLQALSLAVDKQFEERKKLAAYI [G409E] | with no effect
